US9169496B2, “Method for the enzymatic production of butadiene” (Scientist of Fortune, S.A., priority 2011, dated 2015)

B1: E. coli: purified 4-methyl-5-(2-hydroxyethyl)thiazole kinase from Escherichia coli (SEQ ID NO:2) (protein)
chain: MQVDLLGSAQSAHALHLFHQHSPLVHCMTNDVVQTFTANTLLALGASPAMVIETEEASQFAAIASALLINVGTLTQPRAQAMRAAVEQAKSSQTPWTLDPVAVGALDYRRHFCHELLSFKPAAIRGNASEIMALAGIANGGRGVDTTDAAANAIPAAQTLARETGAIVVVTGEMDYVTDGHRIIGIHGGDPLMTKVVGTGCALSAVVAACCALPGDTLENVASACHWMKQAGERAVARSEGPGSFVPHFLDALWQLTQEVQA
modifications: E. coli
B2: Rh. leguminosarum: purified 4-methyl-5-(2-hydroxyethyl)thiazole kinase from Rhizobium leguminosarum (SEQ ID NO:3) (protein, listed as Rhizobium leguminosarum)
chain: MQTRTTPGAMLKAMREKPPLVQCITNYVAMNIAANVLLAAGASPAMVHAAEEAGEFAAIASALTINIGTLSTQWIDGMQAAAKAATSAGKPWVLDPVAHYATAFRRNAVAELLALKPTIIRGNASEIIALAGGESRGQGVDSRDPVEQAEGSARWLAERQRAVVAVTGAVDFVTDGERAVRIEGGSALMPQVTALGCSLTCLVGAFAATAPEDIFGATVAALSTFAIAGEEAALGAAGPGSFSWRFLDALAALDAETLDARARISAA
B3: B. subtilis: purified 4-methyl-5-(2-hydroxyethyl)thiazole kinase from Bacillus subtilis (SEQ ID NO:1) (protein, listed as Bacillus subtilis)
chain: MDAQSAAKCLTAVRRHSPLVHSITNNVVTNFTANGLLALGASPVMAYAKEEVADMAKIAGALVLNIGTLSKESVEAMIIAGKSANEHGVPVILDPVGAGATPFRTESARDIIREVRLAAIRGNAAEIAHTVGVTDWLIKGVDAGEGGGDIIRLAQQAAQKLNTVIAITGEVDVIADTSHVYTLHNGHKLLTKVTGAGCLLTSVVGAFCAVEENPLFAAIAAISSYGVAAQLAAQQTADKGPGSFQIELLNKLSTVTEQDVQEWATIERVTVS
B4: Short chain alcohol dehydrogenase-like protein from Marinobacter manganoxydans (SEQ ID NO: 14): short-chain dehydrogenase from Marinobacter manganoxydans (Uniprot G6YQS9) (protein)
chain: MNYFLTGGTGFIGRFLVEKLLARGGTVHVLVREQSQDKLDKLRERWGADETQVKAVIGDLTSKNLGIDAKTMKALKGKIDHFFHLAAVYDMGADEEAQQATNIEGTRAAVNAAEAMGAKHFHHVSSIAAAGLFKGIFREDMFEEAEKLDHPYLRTKHESEKVVREECKVPFRIYRPGMVIGHTATGEMDKVDGPYYFFKMIQKIRHALPQWVPTIGVEGGRLNIVPVDFVVNAMDHIAHLEGEDGKCFHLVDTDPYKVGEILNIFSEAGHAPRMGMRIDSRMFGFIPPFIRQSLKNLPPVKRLTSAILDDMGIPPSVMSFINYPTRFDARETERVLKGTGIEVPRLPDYAPVIWDYWERNLDPDLFKDRTLKGTVEGRVCVVTGATSGIGLATAQKLADAGAILVIGARKLERLKEVAAELESRGASVHAYPCDFSDMDACDEFVKTVLDNHGQVDVLVNNAGRSIRRSLDLSFDRFHDFERTMQLNYFGSVRLIMGFAPKMLENRRGHVVNISSIGVLTNAPRFSAYVASKSALDAFSR
modifications: Marinobacter manganoxydans
B5: Short chain alcohol dehydrogenase-like protein from Marinobacter algicola (SEQ ID NO: 16): short-chain dehydrogenase from Marinobacter algicola (Uniprot A6EUH6) (protein)
chain: MNYFLTGGTGFIGRFLVEKLLARGGTVHVLVREQSQEKLDKLRERWGADESRVKAVIGDLTSPNLGIDAKTMKSLKGNIDHFFHLAAVYDMGADEKSQQATNIEGTHSAVNAAAAMEAGCFHHVSSIAAAGLFKGTFREDMFEEAEKLDHPYLLTKHESEKVVRESCKVPFRIYRPGMVVGHSKTGEMDKVDGPYYFFKMIQKIRHALPQWVPTIGIEGGRLNIVPVDFVVNAMDHIAHLKGEDGNCFHLVDSDPYKVGEILNIFSEAGHAPRMAMRIDSRMFGFVPPFIRQSLKNLPPVKRLTTALLDDMGIPPSVLSFINYPTRFDARETERVLKDTGIVVPRLESYAAVLWDFWERNLDPDLFKDRTLRGTVEGKVCVITGGTSGIGLATAQKLADAGAILVIGARKKERLMEVAAELEARGGNVHAYQCDFADMDDCDRFVKTVLDNHGHVDVLVNNAGRSIRRSLALSFDRFHDFERTMQLNYFGSVRLIMGFAPAMLERRRGHVVNISSIGVLTNAPRFSAYVASKSALDTFSRCAAAEWSDRNVTFTTINMPLVKTPMIAPTKIYDSVPTLTPDEAAEMVADAIVYRPKRIATRLGIFAQVMQALAPKMGEIVMNTGYRMFPDSPAAAGSRSGAKPKVSSEQVAFAAIMRGIYW
modifications: Marinobacter algicola DG893
B6: Short chain alcohol dehydrogenase-like protein from Hahella chejuensis: short-chain dehydrogenase from Hahella chejuensis (Uniprot Q2SCE0; SEQ ID NO: 17) (protein, listed as Hahella chejuensis)
chain: MNYFVTGGTGFIGRFLVPKLLKRGGTVYLLVREASLPKLDELRERWNASDEQVVGVVGDLAQPMLGVSEKDAAMLRGKVGHFFHLAAIYDMQASAESQEQANIEGTRNAVKLADSLKAACFHHVSSIAAAGLYRGIFREDMFEEAEKLDNPYLRTKHESEKVVREECQTPWRVYRPGMVVGHSKTGEIDKIDGPYYFFKLIQKLRSALPQWMPTVGLEGGRINIVPVDFVVDAMDHIAHAEGEDGKCFHLTDPDPYKVGEILNIFAEAGHAPKMAMRIDARMFGFIPPMIRQGIARLPPVQRMKNAVLNDLGIPDEVMSFINYPTRFDNRETERLLKGTAIAVPRLQDYSPAIWDYWERHLDPDLHKDRTLRGAVEGRVCVITGATSGIGLSAARKLAEAGAKVVIAARTLEKLQEVKKELEELGGEVYEYSVDLSDLEDCDRFVANVLKDLGHVDVLVNNAGRSIRRSIQHAFDRFHDFERTMQLNYFGSLRLIMGFAPSMLERRRGHIVNISSIGVLTNAPRFSAYVASKAALDAFSRCAAAEFSDKNVTFTTINMPLVRTPMISPTKIYDSVPTLTPEEAADLVAEAIIHRPKRIATRLGVFAQVLHSMAPKFSEIIMNTGFKMFPDSSAATGGKDGEKPKVSTEQVAFAAIMRGIHW
B7: Short chain alcohol dehydrogenase-like protein from Marinobacter sp. ELB17 (SEQ ID NO: 15): short-chain dehydrogenase from Marinobacter sp. ELB17 (Uniprot A3JCC5) (protein)
chain: MNYFVTGGTGFIGRFLIARLLARGAIVHVLVREQSVQKLADLREKLGADEKQIKAVVGDLTAPGLGLDKKTLKQLSGKIDHFFHLAAIYDMSASEESQQAANIDGTRAAVAAAEALGAGIFHHVSSIAVAGLFKGTFREDMFAEAGKLDHPYFSTKHESERVVRDECKLPFRIYRPGMVIGDSATGEMDKVDGPYYFFKMIQKIRGALPQWVPTIGLEGGRLNIVPVNFVADALDHIAHLPDEDGKCFHLVDSDPYKVGEILNIFCEAGHAPKMGMRIDSRMFGFVPPFIRQSLKNLPPVKRMGRALLDDLGIPASVLSFINYPTRFDARETERVLQGTGIEVPRLPDYAPVIWDYWERNLDPDLFTDRTLRGTVEGKVCVVTGATSGIGLATAEKLADAGAILVIGARTQETLDQVSAQLNARGADVHAYQCDFADMDACDRFIQTVSENHGAVDVLINNAGRSIRRSLDKSFDRFHDFERTMQLNYFGSLRLIMGFAPAMLERRRGHIINISSIGVLTNAPRFSAYVASKAALDSFSRCAAAEWSDRHVCFTTINMPLVKTPMIAPTKIYDSVPTLSPEEAADMVVNAIVYRPKRIATRMGVFAQVLNAVAPKASEILMNTGYKMFPDSMPKKGKEVSAEKGASTDQVAFAAIMRGIHW
modifications: Marinobacter sp. ELB17

What was measured:
[1] = Screening for crotyl alcohol phosphorylation activity (pyruvate kinase/lactate dehydrogenase coupled ADP assay); format: biochemical; settings: 37° C.; for Activity, micromole/min · mg protein: 50 mM crotyl alcohol (cis and trans mixture), 5 mM ATP, 0.05 mg/ml enzyme, pH 7.5; for ADP production in the presence of crotyl alcohol: 50 mM crotyl alcohol
Protocol: The release of ADP that is associated with crotyl alcohol phosphorylation was quantified using the pyruvate kinase/lactate dehydrogenase coupled assay (FIG. 5). The purified 4-methyl-5-(2-hydroxyethyl)thiazole kinases from Escherichia coli (SEQ ID NO:2), Bacillus subtilis (SEQ ID NO:1), Rhizobium leguminosarum (SEQ ID NO:3) were evaluated for their ability to phosphorylate crotyl alcohol releasing ADP. The studied enzymatic reaction was carried out under the following conditions at 37° C.: • 50 mM Tris-HCl pH 7.5 • 10 mM MgCl2 • 100 mM KCl • 5 mM ATP • 0.4 mM NADH • 1 mM Phosphoenolpyruvate • 3 U/ml Lactate dehydrogenase • 1.5 U/ml Pyruvate kinase • 50 mM crotyl alcohol, mixture cis and trans • The pH was adjusted to 7.5
Each assay was started by addition of a particular enzyme at a concentration 0.05 mg/ml and the disappearance of NADH was monitored by following the absorbance at 340 nm.

[2] = Crotonyl-CoA reductase assay, NADPH decrease at 340 nm; format: biochemical; settings: 5 mM trans crotonyl-CoA, 0.1-0.4 mM NADPH, 0.5-1 mg/ml enzyme, 37° C., pH 7.5
Text: Sequences of short-chain dehydrogenases/reductases inferred from the genomes of prokaryotic organisms were generated by oligonucleotide concatenation to fit the codon usage of E. coli. […] The genes thus synthesized were cloned in a pET25b expression vector and the proteins were produced according to the protocol described in Example 1.

Molecule	Activity, micromole/min · mg protein [1]	ADP production in the presence of crotyl alcohol [1]	Activity, μmol/min/mg protein [2] [μmol/min/mg protein]
B1	0.220 micromole/min · mg protein	reproducible and significant increase in ADP production	–
B2	0.087 micromole/min · mg protein	reproducible and significant increase in ADP production	–
B3	0.014 micromole/min · mg protein	–	–
B4	–	–	7.5
B5	–	–	4
B6	–	–	4.9
B7	–	–	1.2
